Measurements: patent US10889618B2, “D-enantiomeric peptides derived from D3 and use thereof” (FORSCHUNGSZENTRUM JUELICH GMBH, priority 2012, dated 2021)
“Also recorded” adds a separate entry of the source. Non-standard residues stand in square brackets, D forms with d. No end group written: not given here.

Experiments:
[1] = molecular target: T1, A-beta1-42 (Homo sapiens, UniProt P05067); assay: Density gradient centrifugation (iodixanol): modulation of A-beta1-42 aggregation behavior; format: biochemical; conditions: for Peptide bound in fraction 12 [%]: FITC-labelled peptide, amount of dye in fraction 12 of the iodixanol gradient, estimate of binding to / precipitation of A-beta oligomers; for Effect on A-beta aggregation (distribution of A-beta over gradient fractions): 80 μM A-beta1-42, 20 μM peptide, 259,000×g, 3 h, 4° C., SDS-PAGE, silver staining
T1 construct: overlayed with 100 μl of a 80 μM A-beta1-42 solution
T1 sequence (P05067 672-713): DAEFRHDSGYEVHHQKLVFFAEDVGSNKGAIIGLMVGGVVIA
Description: The effects of the peptides described in the table on A-beta aggregation were investigated by means of density gradient centrifugation. Thus, A-beta was mixed with the respective peptide and the particles formed are separated according to size. The sample to be investigated was placed on the surface of the centrifuge tube in which a density gradient was charged, which consisted of layers of different iodixanol concentrations in this example. During the several hours of separation, the molecules sediment at different rates in the solvent, namely, more rapidly the larger the particles. The centrifugation is terminated at a suitable time point and different constituents of the sample are obtained in the various layers which are analyzed by SDS-PAGE. A-beta without addition of peptide served as control.
This changes on addition of RD2. […] Large aggregates are formed which are detectable in fractions 10-15. […] All D-enantiomeric peptides which were characterized with A-beta using the method mentioned above were labelled with FITC. The amount of dye detectable in fraction 12 was used to estimate the binding strength of the respective D3 derivative to A-beta oligomers or the oligomer precipitating effects thereof in vitro. It was shown that the peptide RD2 especially has a significant effect on A-beta aggregation compared to D3.
FIG. 1: Modulation of the A-beta1-42 aggregation behavior by RD2, analzyed by an iodixanol density gradient. The iodixanol gradient was overlayed with 100 μl of a 80 μM A-beta1-42 solution and 100 μl of a 80 μM A-beta and 20 μM RD2 mixture. The mixture was then centrifuged at 259,000×g for 3 h at 4° C. The 15 fractions (fraction 15 is the pellet boiled with the loading buffer) were harvested manually immediately after the centrifugation and analyzed by Tris-Tricin-SDS-PAGE followed by silver staining.

[2] = molecular target: A-beta oligomers (Homo sapiens, UniProt P05067); conditions: D3 in higher concentrations (than 20 μM); cited from earlier work
Sequence of A-beta oligomers (P05067 672-713 limits assumed): as the sequence (P05067 672-713) above

Row | Substance | Peptide bound in fraction 12 [%] [1] [%] | Effect on A-beta aggregation (distribution of A-beta over gradient fractions) [1] | Precipitation of A-beta oligomers [2]
1 | pnhhrrrrrttl ([dP][dN][dH][dH][dR][dR][dR][dR][dR][dT][dT][dL]) [RD1, D3 derivative, rational D3] | 3 |  | 
2 | ptlhthnrrrrr ([dP][dT][dL][dH][dT][dH][dN][dR][dR][dR][dR][dR]) [RD2, D3 derivative, rational D3] | 20 | fewer A-beta oligomers could be detected in the fractions 3-9 | 
3 | rprtrl ([dR][dP][dR][dT][dR][dL]) [NT-D3, D3 derivative, D3-N-Terminus] | 0 |  | 
4 | rprtrlhthrnr ([dR][dP][dR][dT][dR][dL][dH][dT][dH][dR][dN][dR]) [Peptide D3, D-enantiomeric D-peptide D3, parent peptide used as comparison, reference compound] | 4 | no change was apparent; also recorded: no effect | precipitates A-beta oligomers and converts them into large, amorphous and non-toxic aggregates
5 | rprtrlrnr ([dR][dP][dR][dT][dR][dL][dR][dN][dR]) [Peptide D3Δhth, D3 with deletion hth] | 2 |  | 
6 | rrptlrhthnrr ([dR][dR][dP][dT][dL][dR][dH][dT][dH][dN][dR][dR]) [RD3, D3 derivative, rational D3] | 4 |  | 
